These results are taken from PMC4036204, “The DDN Catalytic Motif Is Required for Metnase Functions in Non-homologous End Joining (NHEJ) Repair and Replication Restart*”.

Substitutions are numbered along the chain they refer to.

What all share (test): fluorescence polarization; FP: 50 mM HEPES pH 7.0, 150 mM NaCl, 10 nM probe, temperature not stated; EMSA: 50 mM HEPES-KOH pH 7.8, 50 mM NaCl, 0.2 ug poly(dI:dC), 0.2 ug/ul BSA, room temperature 15 min
Data set [1] has as its target T1, Metnase transposase domain WT (UniProt Q53H47 342-684).
T1 sequence: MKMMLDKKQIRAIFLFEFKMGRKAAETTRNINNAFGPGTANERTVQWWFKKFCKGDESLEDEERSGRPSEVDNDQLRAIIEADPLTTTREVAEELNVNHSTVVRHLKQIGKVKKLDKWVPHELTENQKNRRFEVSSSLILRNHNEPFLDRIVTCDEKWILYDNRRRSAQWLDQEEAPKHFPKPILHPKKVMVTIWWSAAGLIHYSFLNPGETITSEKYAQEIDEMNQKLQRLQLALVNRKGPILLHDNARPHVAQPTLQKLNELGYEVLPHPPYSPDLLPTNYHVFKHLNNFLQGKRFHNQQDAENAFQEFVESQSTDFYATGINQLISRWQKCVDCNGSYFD
The following applies: protein: recombinant, tags: His6-SUMO cleaved by Ulp1.

For another data set, the target named is T2, Mos1 transposase D284N (UniProt Q7JQ07 1-345, D284N).
T2 sequence: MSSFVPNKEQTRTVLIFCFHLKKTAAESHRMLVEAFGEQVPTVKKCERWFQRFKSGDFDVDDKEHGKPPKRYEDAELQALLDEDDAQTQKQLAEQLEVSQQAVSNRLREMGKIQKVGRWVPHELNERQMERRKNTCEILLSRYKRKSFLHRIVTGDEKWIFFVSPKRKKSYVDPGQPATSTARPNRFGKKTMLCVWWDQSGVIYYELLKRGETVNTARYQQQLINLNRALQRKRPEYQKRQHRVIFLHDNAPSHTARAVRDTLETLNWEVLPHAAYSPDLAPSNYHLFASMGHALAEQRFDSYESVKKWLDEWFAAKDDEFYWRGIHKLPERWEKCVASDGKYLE
To be noted: protein: recombinant; tags: His6-SUMO cleaved by Ulp1; label: 5' rhodamine; single strand.

Data set [2] has as its target T3, Metnase catalytic domain WT (UniProt Q53H47 446-684).
T3 sequence: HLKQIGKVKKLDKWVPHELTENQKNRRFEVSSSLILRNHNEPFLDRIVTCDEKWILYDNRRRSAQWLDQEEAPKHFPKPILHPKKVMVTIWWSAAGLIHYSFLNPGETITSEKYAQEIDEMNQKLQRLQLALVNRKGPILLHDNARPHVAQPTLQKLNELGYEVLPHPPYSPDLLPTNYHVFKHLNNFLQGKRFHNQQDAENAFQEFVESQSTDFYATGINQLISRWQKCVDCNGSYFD
To be noted: protein: recombinant, tags: N-terminal His tag removed by thrombin.

The target in a further data set is T4, Mos1 transposase WT (UniProt Q7JQ07 1-345).
T4 sequence: T2 sequence with N284D
The following applies: protein: recombinant; tags: His6-SUMO cleaved by Ulp1; label: 5' rhodamine; single strand.

The target in data set [3] is T5, Metnase transposase domain N610D (UniProt Q53H47 342-684, N623D).
T5 sequence: T1 sequence with N282D
To be noted: protein: recombinant; tags: His6-SUMO cleaved by Ulp1; label: 5' rhodamine; single strand.

Data set [4] has as its target T6, Metnase DNA-binding domain WT (UniProt Q53H47 342-453).
T6 sequence: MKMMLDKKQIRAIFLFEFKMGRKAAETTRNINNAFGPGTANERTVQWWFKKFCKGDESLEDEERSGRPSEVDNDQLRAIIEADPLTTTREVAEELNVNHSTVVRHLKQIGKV
To be noted: protein: recombinant, tags: His6-SUMO cleaved by Ulp1.

Data set [5] deals with T7, Metnase transposase domain N610E (UniProt Q53H47 342-684, N623E).
T7 sequence: T1 sequence with N282E
To be noted: protein: recombinant; tags: His6-SUMO cleaved by Ulp1; label: 5' rhodamine; single strand.

Setting [6] is: label: 5' rhodamine, single strand.
Where [7] appears, read: label: 5' rhodamine on strand 1, blunt.

B1: 25/31-mer TIR partial duplex (dsDNA)
DNA 1: AACCGCAATTACTTTTGCACCAACC
DNA 2: TCAGTAGGTTGGTGCAAAAGTAATTGCGGTT
modifications: 5' C6-amino linker on strand 1
As for B1, the Kd (in general, a measure of binding affinity in units of concentration) in data set [1] (chain copies: 2, label: 5' rhodamine on strand 1, 5' overhang 6 nt on strand 2) is 11.9 ± 2.5 nM.

Take AACCGCAATTACTTTTGCACCAACC (ssDNA, 5' C6-amino linker) [25-nt TIR ssDNA]: the Kd was determined as 33 ± 12 nM in the data set with Mos1 transposase D284N; 295 ± 47 nM in data set [2] (setting [6]); 277 ± 26 nM in data set [1] (setting [6]); 33 ± 9 nM in the data set with Mos1 transposase WT; 3.3 ± 1.1 µM in data set [3]; 3.2 ± 0.4 µM in data set [5]. Also, the binding result in data set [4] (setting [6]) is “no binding”.

B2: 28-bp blunt TIR dsDNA (dsDNA)
DNA 1: AACCGCAATTACTTTTGCACCAACCTAA
DNA 2: TTAGGTTGGTGCAAAAGTAATTGCGGTT
modifications: 5' C6-amino linker on strand 1
For B2, the Kd worked out at 4700 ± 800 nM in data set [2] (setting [7]); 7.9 ± 1.9 nM in data set [1] (chain copies: 2, label: 5' rhodamine on strand 1, blunt); 3.2 ± 0.9 nM in data set [4] (setting [7]).
